Data reported in EP2014310A2 (Dyax Corporation, dated 2009).
Bridge positions count the residues as written; N and C are the ends. Ends that are not written are not given here. I, II: the chains in the order shown.

Columns and labels:
[1] = target: KDR on transiently KDR-transfected 293H cells (human) (UniProt P35968); assay: competition with 300 pM 125I-VEGF on KDR-transfected 293H cells, peptide 0.3 µM
[2] = target: KDR on transiently KDR-transfected 293H cells (human) (UniProt P35968); assay: competition with 300 pM 125I-VEGF on KDR-transfected 293H cells, peptide 30 µM
[3] = target: T1, human KDR-Fc fusion (R&D Systems #357-KD-050) (human, UniProt P35968 20-764); assay: Biacore, KDR-Fc on CM5 chip, unlabeled peptide
T1 construct: bought

[4] = target: KDR on human umbilical vein endothelial cells (HUVECs) (human, UniProt P35968 20-1356); assay: cell-based or functional assay
[5] = target: T2, murine KDR-Fc fusion (R&D Systems #443-KD-050) (murine, UniProt P35918 20-762); assay: BIAcore, KD1 = kd1/ka1, murine KDR-Fc 2700RU
T2 construct: bought; also called recombinant murine KDR-Fc; rmKDR-Fc

[6] = target: T2, murine KDR-Fc fusion (R&D Systems …); assay: BIAcore, KD1 = kd1/ka1, murine KDR-Fc 5000RU
[7] = target: human KDR-Fc fusion (R&D Systems #357-KD-050) (human) (UniProt P35968); assay: SPR, reference D2
[8] = target: T1, human KDR-Fc fusion (R&D Systems …); assay: Biacore steady state, KD1 of double rectangular hyperbola, KDR-Fc 1600RU
[9] = target: T1, human KDR-Fc fusion (R&D Systems …); assay: Biacore steady state, KD1 of double rectangular hyperbola, KDR-Fc 6000RU
[10] = target: T1, human KDR-Fc fusion (R&D Systems …); assay: Biacore steady state, KD1 of double rectangular hyperbola, KDR-Fc 3000RU
[11] = target: T1, human KDR-Fc fusion (R&D Systems …); assay: Biacore steady state at the higher immobilization densities
[12] = target: T1, human KDR-Fc fusion (R&D Systems …); assay: SPR
[13] = target: T2, murine KDR-Fc fusion (R&D Systems …); assay: BIAcore, KD1 = kd1/ka1, fluorescein-labeled peptide, murine KDR-Fc 2700RU
[14] = target: T2, murine KDR-Fc fusion (R&D Systems …); assay: BIAcore, KD1 = kd1/ka1, fluorescein-labeled peptide, murine KDR-Fc 5000RU
[15] = target: T3, KDR on transiently KDR-transfected 293H cells (human, UniProt P35968 20-1356); assay: displacement of 5.5 nM peptide/streptavidin-HRP complex from KDR-transfected 293H cells
T3 construct: whole, on cells; also called KDR-expressing cells

[16] = target: T3, KDR on transiently KDR-transfected 293H …; assay: displacement of 5.5 nM streptavidin-HRP/binding peptide complex from KDR-transfected 293H cells
[17] = target: T1, human KDR-Fc fusion (R&D Systems …); assay: phage binding screen on KDR-Fc; class legend in paragraph 246
[18] = target: T4, KDR/VEGF complex (KDR-Fc mixed or saturated with VEGF) (human, UniProt P35968 20-764; P15692 27-191); assay: fluorescence anisotropy, fluorescein-labeled peptide, KDR-Fc with two fold excess VEGF
T4 construct: anisotropy: two fold molar excess of VEGF mixed with KDR-Fc; Biacore: KDR-Fc chip saturated with VEGF; also called KDR:VEGF165 complex

[19] = target: T5, VEGF165 (Peprotech #100-20) (UniProt P15692-4 27-191); assay: fluorescence anisotropy, fluorescein-labeled peptide, VEGF alone
[20] = target: T1, human KDR-Fc fusion (R&D Systems …); assay: fluorescence anisotropy, fluorescein-labeled peptide
[21] = target: T5, VEGF165 (Peprotech #100-20); assay: as above
[22] = target: T4, KDR/VEGF complex (KDR-Fc mixed or …); assay: Biacore, KDR-Fc chip saturated with VEGF, unlabeled peptide
[23] = target: T1, human KDR-Fc fusion (R&D Systems …); assay: fluorescence anisotropy, fluorescein-labeled peptide, KDR-Fc alone

T1 sequence (P35968 20-764): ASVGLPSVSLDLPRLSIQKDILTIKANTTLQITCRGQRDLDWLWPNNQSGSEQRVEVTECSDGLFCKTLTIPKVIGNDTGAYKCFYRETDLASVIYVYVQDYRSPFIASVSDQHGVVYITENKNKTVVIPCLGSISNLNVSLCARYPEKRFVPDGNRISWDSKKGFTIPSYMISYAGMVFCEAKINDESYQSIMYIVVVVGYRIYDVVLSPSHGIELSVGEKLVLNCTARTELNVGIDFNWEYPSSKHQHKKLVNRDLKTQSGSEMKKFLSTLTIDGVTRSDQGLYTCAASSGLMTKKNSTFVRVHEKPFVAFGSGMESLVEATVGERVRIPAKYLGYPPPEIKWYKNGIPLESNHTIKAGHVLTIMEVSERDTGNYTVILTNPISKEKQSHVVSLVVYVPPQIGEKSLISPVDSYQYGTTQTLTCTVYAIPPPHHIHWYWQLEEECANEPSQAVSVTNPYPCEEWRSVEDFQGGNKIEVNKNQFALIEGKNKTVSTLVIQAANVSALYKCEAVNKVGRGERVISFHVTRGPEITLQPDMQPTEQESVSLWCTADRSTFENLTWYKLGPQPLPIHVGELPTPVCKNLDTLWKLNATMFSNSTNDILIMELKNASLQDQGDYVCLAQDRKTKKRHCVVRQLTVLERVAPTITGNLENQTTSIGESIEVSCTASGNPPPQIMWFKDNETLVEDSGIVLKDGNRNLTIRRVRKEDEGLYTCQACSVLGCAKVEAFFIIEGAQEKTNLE
T4 sequence (P35968 20-764, chain 1 of 2): as the sequence (P35968 20-764) above
T4 sequence (P15692 other isoform, or with tags, fused parts or gaps, chain 2 of 2): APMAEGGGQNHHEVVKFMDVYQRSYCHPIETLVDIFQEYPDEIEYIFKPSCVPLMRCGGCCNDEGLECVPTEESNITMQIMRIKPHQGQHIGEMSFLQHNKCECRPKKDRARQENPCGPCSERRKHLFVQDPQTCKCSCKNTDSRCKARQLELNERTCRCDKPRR
T5 sequence (P15692 other isoform, or with tags, fused parts or gaps limits assumed): as the sequence (P15692 other isoform, or with tags, fused parts or gaps, chain 2 of 2) above
Sequence of KDR on human umbilical vein endothelial cells (HUVECs) (P35968 20-1356): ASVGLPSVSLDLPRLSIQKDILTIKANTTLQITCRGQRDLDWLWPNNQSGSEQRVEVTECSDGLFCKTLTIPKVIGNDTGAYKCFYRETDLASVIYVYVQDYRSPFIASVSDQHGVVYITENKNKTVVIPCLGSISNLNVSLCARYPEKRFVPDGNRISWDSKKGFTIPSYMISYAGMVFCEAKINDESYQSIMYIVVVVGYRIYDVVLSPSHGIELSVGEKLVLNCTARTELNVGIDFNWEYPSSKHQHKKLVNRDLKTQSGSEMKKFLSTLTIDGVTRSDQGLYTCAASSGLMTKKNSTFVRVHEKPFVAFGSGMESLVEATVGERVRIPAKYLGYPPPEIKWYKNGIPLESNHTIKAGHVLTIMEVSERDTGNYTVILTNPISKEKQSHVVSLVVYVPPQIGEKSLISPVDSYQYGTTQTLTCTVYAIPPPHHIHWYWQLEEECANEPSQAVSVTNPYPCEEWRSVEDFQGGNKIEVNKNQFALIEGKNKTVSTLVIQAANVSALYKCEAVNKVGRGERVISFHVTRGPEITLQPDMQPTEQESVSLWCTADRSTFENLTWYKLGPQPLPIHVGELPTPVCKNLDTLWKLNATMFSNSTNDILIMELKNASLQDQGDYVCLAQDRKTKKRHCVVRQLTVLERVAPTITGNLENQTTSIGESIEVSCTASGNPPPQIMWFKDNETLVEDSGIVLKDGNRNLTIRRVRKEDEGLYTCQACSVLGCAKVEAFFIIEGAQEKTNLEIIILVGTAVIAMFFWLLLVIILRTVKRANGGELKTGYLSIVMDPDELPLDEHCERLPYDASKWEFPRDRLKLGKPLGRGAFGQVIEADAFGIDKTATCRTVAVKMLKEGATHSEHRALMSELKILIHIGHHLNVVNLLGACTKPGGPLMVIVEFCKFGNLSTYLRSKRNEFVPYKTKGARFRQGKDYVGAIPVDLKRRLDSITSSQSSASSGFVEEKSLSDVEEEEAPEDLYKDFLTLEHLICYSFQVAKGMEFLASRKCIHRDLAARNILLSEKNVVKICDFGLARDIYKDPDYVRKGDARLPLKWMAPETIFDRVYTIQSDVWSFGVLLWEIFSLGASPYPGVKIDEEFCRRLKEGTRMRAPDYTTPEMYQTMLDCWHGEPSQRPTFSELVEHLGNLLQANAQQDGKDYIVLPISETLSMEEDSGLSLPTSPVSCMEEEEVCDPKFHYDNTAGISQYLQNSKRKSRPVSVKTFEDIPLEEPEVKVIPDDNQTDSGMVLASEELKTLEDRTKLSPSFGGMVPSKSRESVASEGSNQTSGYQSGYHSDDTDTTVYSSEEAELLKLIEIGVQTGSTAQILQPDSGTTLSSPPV
T2 sequence (P35918 20-762): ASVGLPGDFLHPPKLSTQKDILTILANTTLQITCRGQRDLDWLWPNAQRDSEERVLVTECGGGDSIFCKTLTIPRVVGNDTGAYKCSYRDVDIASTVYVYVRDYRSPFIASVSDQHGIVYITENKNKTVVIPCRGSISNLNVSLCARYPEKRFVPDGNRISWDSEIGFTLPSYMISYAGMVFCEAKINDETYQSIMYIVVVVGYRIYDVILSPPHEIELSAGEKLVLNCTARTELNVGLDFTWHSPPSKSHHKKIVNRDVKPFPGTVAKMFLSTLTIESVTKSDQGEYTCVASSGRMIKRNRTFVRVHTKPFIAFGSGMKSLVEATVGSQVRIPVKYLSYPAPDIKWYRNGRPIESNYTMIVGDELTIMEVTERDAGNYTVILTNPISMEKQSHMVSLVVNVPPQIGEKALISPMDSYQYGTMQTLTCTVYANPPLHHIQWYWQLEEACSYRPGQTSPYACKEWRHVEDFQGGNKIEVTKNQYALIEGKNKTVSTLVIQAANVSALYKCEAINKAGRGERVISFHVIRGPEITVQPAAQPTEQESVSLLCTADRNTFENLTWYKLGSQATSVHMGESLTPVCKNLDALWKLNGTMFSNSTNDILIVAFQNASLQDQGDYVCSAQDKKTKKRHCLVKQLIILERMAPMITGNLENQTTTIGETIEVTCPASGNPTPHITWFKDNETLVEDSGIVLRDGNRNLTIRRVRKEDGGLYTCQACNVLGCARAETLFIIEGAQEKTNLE
Sequence of KDR on transiently KDR-transfected 293H cells (human) (P35968 20-1356): as the sequence (P35968 20-1356) above
T3 sequence (P35968 20-1356): as above
Sequence of human KDR-Fc fusion (R&D Systems #357-KD-050) (human) (P35968 20-764): as the sequence (P35968 20-764) above

Ac-GDSRVCWEDSWGGEVCFRYDPGGGK-NH2 (not fully specified; cysteine pairing not given here) [SEQ ID NO:294] showed a % inhibition of 125I-labeled VEGF binding [1] of 52.3%, a % inhibition of 125I-labeled VEGF binding [2] of 96.3% and a Kd [3] of 120 nM. The “VEGF-induced KDR phosphorylation in HUVECs” value [4] was ≥ 50 % inhibition at 10 µM.

B1: dimer 1 (D1) (peptide)
peptide 1: Ac-AGPTWCEDDWYYCWLFGTGGGK
peptide 2: Ac-VCWEDSWGGEVCFRYDPGGG
modifications: cysteine pairing not given here; also: heterodimer, C-terminal Lys joined through Biotin-JJK-glutaryl-JJ linker to the second peptide, amide, C-terminus joined to a lysine amide of the linker
Work on B1 yielded a Kd [5] of 17.5 nM, a Kd [6] of 16 nM and a fold higher affinity than D2 [7] of 10 fold. For the same binder, the “IC50, VEGF-induced phosphorylation of KDR in HUVECs” value [4] was 0.5 to 1 nM.

B2: D6, peptide heterodimer composed of SEQ ID NO:277 and SEQ ID NO:294 (peptide)
peptide 1: AGPTWCEDDWYYCWLFGTGGGK
peptide 2: GDSRVCWEDSWGGEVCFRYDPGGGK
modifications: linker (positions not given here) via glutaric acid; disulfide I:6-I:13, II:6-II:16 (inferred); also: heterodimer joined by glutaric acid linker, attachment places not given here
notes: made with glutaric acid bis N-hydroxysuccinimidyl ester
With B2 the Kd [8] was 46 nM, the Kd [9] was 17 nM and the Kd [10] was 25.5 nM. The Kd [11] was ~0.6 nM and the “IC50, VEGF-induced migration of HUVECs” value [4] was ~12.5 nM.

B3: tail-to-tail heterodimer comprising the polypeptides of SEQ ID NO:305 and SEQ ID NO:306 (peptide)
peptide 1: AQEPEGYAYWEVITLYHEEDGDGGK
peptide 2: AQAFPRFGGDDYWIQQYLRYTDGGK
modifications: not fully specified (bridges); also: tail-to-tail linker not given here
B3 showed a Kd [12] of 11 nM.

Ac-AGPTWCEDDWYYCWLFGTGGGK-NH2 (disulfide 6-13 (inferred); not fully specified) [SEQ ID NO:277] showed a Kd [13] of 36.4 nM and a Kd [14] of 33.6 nM.

DWYYGGGK [SEQ ID NO:462, fragment of SEQ ID NO:356 (Asp-Trp-Tyr-Tyr motif with Gly-Gly-Gly-Lys)] was tested, and the IC50 [15] was 850 nM.

Ac-AGPTWKEDDWYYEWLFGTGGGK-NH2 (lactam 6-13) [SEQ ID NO:454, lactam disulfide bridge replacement analog] gave an IC50 [16] of 108 nM.

DHHCYLHNGQWICYPF [phage isolate DHHCYLHNGQWICYPF]: binds [17].

NSHCYIWDGMWLCFPD [phage isolate NSHCYIWDGMWLCFPD]: binds [17].

B4: SEQ ID NO:320 (peptide)
peptide: Ac-AGMPWCVEKDHWDCWWWGTGGGK-NH2
modifications: disulfide 6-14 (inferred); not fully specified; also: C-terminal Lys fluorescein-labeled in some assay forms
For B4, the Kd [18] was 140 nM, the Kd [19] was 10000 nM and the binding result [20] was “no binding”.

B5: SEQ ID NO:321 (peptide)
peptide: Ac-AGPGPCKGYMPHQCWYMGTGGGK-NH2
modifications: disulfide 6-14 (inferred); not fully specified; also: C-terminal Lys fluorescein-labeled in some assay forms
In the case of B5, the Kd [18] is reported as 60 nM, the binding result [21] is reported as “no binding” and the Kd [22] is reported as 80 nM. The Kd [23] was 400 nM.

B6: SEQ ID NO:322 (peptide)
peptide: Ac-AGYGPCAEMSPWLCWYPGTGGGK-NH2
modifications: disulfide 6-14 (inferred); not fully specified; also: C-terminal Lys fluorescein-labeled in some assay forms
B6 was tested, and the Kd [18] was 130 nM, the binding result [21] was “no binding” and the Kd [23] was 3700 nM.

B7: SEQ ID NO:323 (peptide)
peptide: Ac-AGYGPCKNMPPWMCWHEGTGGGK-NH2
modifications: disulfide 6-14 (inferred); not fully specified; also: C-terminal Lys fluorescein-labeled in some assay forms
B7 was tested, and the Kd [18] was 180 nM, the binding result [21] was “no binding” and the Kd [22] was 420 nM. The Kd [23] was 1800 nM.

B8: SEQ ID NO:325 (peptide)
peptide: Ac-AQAPAWTFGTNWRSIQRVDSLTGGGGGK-NH2
modifications: not fully specified; also: C-terminal Lys fluorescein-labeled in some assay forms
B8 was tested, and the Kd [18] was 840 nM, the binding result [21] was “no binding” and the binding result [20] was “no binding”.

B9: SEQ ID NO:326 (peptide)
peptide: Ac-AQEGWFRNPQEIMGFGDSWDKPGGGGGK-NH2
modifications: not fully specified; also: C-terminal Lys fluorescein-labeled in some assay forms
In the case of B9, the Kd [18] is reported as 1400 nM, the binding result [21] is reported as “no binding” and the binding result [20] is reported as “no binding”.
